In data set [1] the test system is HeLa Kyoto. The data set can be described thus: melting temperature (median over replicates), in situ; higher = more thermally stable.
The test system of data set [2] is HeLa Kyoto. The data set can be described thus: solubility change mitosis vs G1/S (difference of NP-40 vs SDS log2 ratios) (log2 ratio difference); higher = more soluble in mitosis.
Data set [3] concerns HeLa Kyoto. The data set can be described thus: thermal stability score vs G1/S (z-score of summed log2 fold changes over temperatures); higher = more thermally stable than in G1/S.
Data set [4] deals with HeLa Kyoto. The data set can be described thus: solubility in G1/S (NP-40 vs SDS abundance) (log2 ratio); higher = more soluble. The following applies: cell cycle stage: G1/S.
Where [5] appears, read: cell cycle stage: early G1 (4.5 h after nocodazole release).
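Wherever melting temperature (median over replicates), in situ is given: HeLa Kyoto cells synchronized by double thymidine or nocodazole block, proteins quantified by TMT10plex mass spectrometry, three independent biological replicates.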
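Wherever solubility change mitosis vs G1/S (difference of NP-40 vs SDS log2 ratios) is given: synchronized HeLa Kyoto cells (double thymidine block for G1/S, nocodazole release for mitosis), protein amounts in NP-40 versus SDS lysates quantified by mass spectrometry, three biological replicates.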
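Wherever solubility in G1/S (NP-40 vs SDS abundance) is given: HeLa Kyoto cells arrested at G1/S by double thymidine block, proteins quantified by TMT10plex mass spectrometry in mild NP-40 versus SDS extracts, three biological replicates.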
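Wherever thermal stability score vs G1/S (z-score of summed log2 fold changes over temperatures) is given: synchronized HeLa Kyoto cells, proteins quantified by TMT10plex mass spectrometry, three biological replicates, mitosis taken 0.5 h after nocodazole release, G1/S directly after double thymidine block.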

In the case of “MERFRLEKKLPGPDEEAVVDLGKTSSTVNTKFEKEELESHRAVYIGVHVPFSKESRRRHRHRGHKHHHRRRKDKESDKEDGRESPSYDTPSQRVQFILGTEDDDEEHIPHDLFTEMDELCYRDGEEYEWKETARWLKFEEDVEDGGDRWSKPYVATLSLHSLFELRSCILNGTVMLDMRASTLDEIADMVLDNMIASGQLDESIRENVREALLKRHHHQNEKRFTSRIPLVRSFADIGKKHSDPHLLERNGEGLSASRHSLRTGLSASNLSLRGESPLSLLLGHLLPSSRAGTPAGSRCTTPVPTPQNSPPSSPSISRLTSRSSQESQRQAPELLVSPASDDIPTVVIHPPEEDLEAALKGEEQKNEENVDLTPGILASPQSAPGNLDNSKSGEIKGNGSGGSRENSTVDFSKVDMNFMRKIPTGAEASNVLVGEVDFLERPIIAFVRLAPAVLLTGLTEVPVPTRFLFLLLGPAGKAPQYHEIGRSIATLMTDEIFHDVAYKAKDRNDLLSGIDEFLDQVTVLPPGEWDPSIRIEPPKSVPSQEKRKIPVFHNGSTPTLGETPKEAAHHAGPELQRTGRLFGGLILDIKRKAPFFLSDFKDALSLQCLASILFLYCACMSPVITFGGLLGEATEGRISAIESLFGASLTGIAYSLFAGQPLTILGSTGPVLVFEKILYKFCRDYQLSYLSLRTSIGLWTSFLCIVLVATDASSLVCYITRFTEEAFAALICIIFIYEALEKLFDLGETYAFNMHNNLDKLTSYSCVCTEPPNPSNETLAQWKKDNITAHNISWRNLTVSECKKLRGVFLGSACGHHGPYIPDVLFWCVILFFTTFFLSSFLKQFKTKRYFPTKVRSTISDFAVFLTIVIMVTIDYLVGVPSPKLHVPEKFEPTHPERGWIISPLGDNPWWTLLIAAIPALLCTILIFMDQQITAVIINRKEHKLKKGAGYHLDLLMVGVMLGVCSVMGLPWFVAATVLSISHVNSLKVESECSAPGEQPKFLGIREQRVTGLMIFILMGLSVFMTSVLKFIPMPVLYGVFLYMGVSSLKGIQLFDRIKLFGMPAKHQPDLIYLRYVPLWKVHIFTVIQLTCLVLLWVIKVSAAAVVFPMMVLALVFVRKLMDLCFTKRELSWLDDLMPESKKKKEDDKKKKEKEEAERMLQDDDDTVHLPFEGGSLLQIPVKALKYSPDKPVSVKISFEDEPRKKYVDAETSL [SLC4A7]”, the figures for the melting temperature in data set [1] (cell cycle stage: G1/S) and in data set [1] (cell cycle stage: mitosis) were 54.4 °C and 53.6 °C, respectively. In data set [2], the “solubility change mitosis (log2)” value is 0.0133. Besides, the thermal stability score in data set [3] (setting [5]) is -0.753; in data set [3] (cell cycle stage: mitosis), 1.69. Moreover, the “solubility in G1/S (log2)” value in data set [4] is -0.196.
On to “MERHQPRLHHPAQGSAAGTPYPSSASLRGCRESKMPRRKGPQHPPPPSGPEEPGEKRPKFHLNIRTLTDDMLDKFASIRIPGSKKERPPLPNLKTAFASSDCSAAPLEMMENFPKPLSENELLELFEKMMEDMNLNEDKKAPLREKDFSIKKEMVMQYINTASKTGSLKRSRQISPQEFIHELKMGSADERLVTCLESLRVSLTSNPVSWVESFGHEGLGLLLDILEKLISGKIQEKVVKKNQHKVIQCLKALMNTQYGLERIMSEERSLSLLAKAVDPRHPNMMTDVVKLLSAVCIVGEESILEEVLEALTSAGEEKKIDRFFCIVEGLRHNSVQLQVACMQLINALVTSPDDLDFRLHIRNEFMRCGLKEILPNLKCIKNDGLDIQLKVFDEHKEEDLFELSHRLEDIRAELDEAYDVYNMVWSTVKETRAEGYFISILQHLLLIRNDYFIRQQYFKLIDECVSQIVLHRDGMDPDFTYRKRLDLDLTQFVDICIDQAKLEEFEEKASELYKKFEKEFTDHQETQAELQKKEAKINELQAELQAFKSQFGALPADCNIPLPPSKEGGTGHSALPPPPPLPSGGGVPPPPPPPPPPPLPGMRMPFSGPVPPPPPLGFLGGQNSPPLPILPFGLKPKKEFKPEISMRRLNWLKIRPHEMTENCFWIKVNENKYENVDLLCKLENTFCCQQKERREEEDIEEKKSIKKKIKELKFLDSKIAQNLSIFLSSFRVPYEEIRMMILEVDETRLAESMIQNLIKHLPDQEQLNSLSQFKSEYSNLCEPEQFVVVMSNVKRLRPRLSAILFKLQFEEQVNNIKPDIMAVSTACEEIKKSKSFSKLLELVLLMGNYMNAGSRNAQTFGFNLSSLCKLKDTKSADQKTTLLHFLVEICEEKYPDILNFVDDLEPLDKASKVSVETLEKNLRQMGRQLQQLEKELETFPPPEDLHDKFVTKMSRFVISAKEQYETLSKLHENMEKLYQSIIGYYAIDVKKVSVEDFLTDLNNFRTTFMQAIKENIKKREAEEKEKRVRIAKELAERERLERQQKKKRLLEMKTEGDETGVMDNLLEALQSGAAFRDRRKRTPMPKDVRQSLSPMSQRPVLKVCNHENQKVQLTEGSRSHYNINCNSTRTPVAKELNYNLDTHTSTGRIKAAEKKEACNVESNRKKETELLGSFSKNESVPEVEALLARLRAL [DIAPH3]”, for which the melting temperature in data set [1] (cell cycle stage: G1/S) was 46.8 °C; in data set [1] (cell cycle stage: mitosis), 46.4 °C. Also, the “solubility change mitosis (log2)” value in data set [2] is -0.183. Besides, the figures for the thermal stability score in data set [3] (setting [5]) and in data set [3] (cell cycle stage: mitosis) were 1.77 and 3.55, respectively. The “solubility in G1/S (log2)” value in data set [4] came to 0.186.
Take “MERKVLALQARKKRTKAKKDKAQRKSETQHRGSAPHSESDLPEQEEEILGSDDDEQEDPNDYCKGGYHLVKIGDLFNGRYHVIRKLGWGHFSTVWLSWDIQGKKFVAMKVVKSAEHYTETALDEIRLLKSVRNSDPNDPNREMVVQLLDDFKISGVNGTHICMVFEVLGHHLLKWIIKSNYQGLPLPCVKKIIQQVLQGLDYLHTKCRIIHTDIKPENILLSVNEQYIRRLAAEATEWQRSGAPPPSGSAVSTAPQPKPADKMSKNKKKKLKKKQKRQAELLEKRMQEIEEMEKESGPGQKRPNKQEESESPVERPLKENPPNKMTQEKLEESSTIGQDQTLMERDTEGGAAEINCNGVIEVINYTQNSNNETLRHKEDLHNANDCDVQNLNQESSFLSSQNGDSSTSQETDSCTPITSEVSDTMVCQSSSTVGQSFSEQHISQLQESIRAEIPCEDEQEQEHNGPLDNKGKSTAGNFLVNPLEPKNAEKLKVKIADLGNACWVHKHFTEDIQTRQYRSLEVLIGSGYNTPADIWSTACMAFELATGDYLFEPHSGEEYTRDEDHIALIIELLGKVPRKLIVAGKYSKEFFTKKGDLKHITKLKPWGLFEVLVEKYEWSQEEAAGFTDFLLPMLELIPEKRATAAECLRHPWLNS [SRPK1]”: the melting temperature in data set [1] (cell cycle stage: G1/S) worked out at 51.7 °C; in data set [1] (cell cycle stage: mitosis) it was 51.3 °C. For the same sequence, the “solubility change mitosis (log2)” value in data set [2] turned out to be 0.114. The thermal stability score in data set [3] (setting [5]) is 0.23; in data set [3] (cell cycle stage: mitosis), -0.71. In data set [4], the “solubility in G1/S (log2)” value was -0.411.
As to “MERPDKAALNALQPPEFRNESSLASTLKTLLFFTALMITVPIGLYFTTKSYIFEGALGMSNRDSYFYAAIVAVVAVHVVLALFVYVAWNEGSRQWREGKQD [VMA21]”, the melting temperature in data set [1] (cell cycle stage: G1/S) stood at 55.6 °C; in data set [1] (cell cycle stage: mitosis) it was 56.7 °C. For the same sequence, the “solubility change mitosis (log2)” value in data set [2] was -0.124. Also, the figures for the thermal stability score in data set [3] (setting [5]) and in data set [3] (cell cycle stage: mitosis) were -1.79 and -0.397, respectively. In addition, the “solubility in G1/S (log2)” value in data set [4] was -0.135.

(Values after the supplement of paper PMC5998384.)
